According to PMC5638086, “Assessment of the protein interaction between coagulation factor XII and corn trypsin inhibitor by molecular docking and biochemical validation” (Journal of Thrombosis and Haemostasis, 2017):
Like-named read-outs stand apart in the source and are kept apart here.

Legend:
FXIa = conditions: previous reports; cited from earlier work
α‐FXIIa [1] = target: T1, α‐FXIIa (Homo sapiens, UniProt P00748); experiment: α‐FXIIa enzymatic assay (S‐2302 chromogenic substrate cleavage, pNA release); format: biochemical; conditions: CTI variant proteins 10^−8 M to 10^−5 M, 200 μM S‐2302, 10 nM α‐FXIIa, 33 °C, initial rate of first 30 min, A405; SE of the fit, n = 3–5 independent experiments; SEM
T1 construct: purchased Enzyme Research Laboratories (Swansea, UK)
T1 sequence (P00748 373-615 limits assumed): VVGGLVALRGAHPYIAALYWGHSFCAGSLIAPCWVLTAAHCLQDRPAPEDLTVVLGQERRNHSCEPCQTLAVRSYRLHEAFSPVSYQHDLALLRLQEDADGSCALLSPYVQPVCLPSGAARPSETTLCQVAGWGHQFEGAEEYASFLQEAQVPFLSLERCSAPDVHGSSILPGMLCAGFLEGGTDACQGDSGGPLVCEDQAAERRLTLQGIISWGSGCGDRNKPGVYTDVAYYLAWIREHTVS
T1 sequence (P00748 20-372 partner limits assumed): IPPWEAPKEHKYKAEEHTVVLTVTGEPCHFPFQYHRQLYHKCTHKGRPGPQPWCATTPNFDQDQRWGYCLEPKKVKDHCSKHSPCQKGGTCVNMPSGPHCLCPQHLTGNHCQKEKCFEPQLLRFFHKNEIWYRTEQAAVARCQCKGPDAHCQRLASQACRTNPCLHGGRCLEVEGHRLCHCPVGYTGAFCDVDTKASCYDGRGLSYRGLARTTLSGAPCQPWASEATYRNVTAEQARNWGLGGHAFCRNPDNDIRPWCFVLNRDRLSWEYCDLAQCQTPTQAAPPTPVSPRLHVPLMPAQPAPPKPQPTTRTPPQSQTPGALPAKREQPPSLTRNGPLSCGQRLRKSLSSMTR
Protocol: (§1) The enzymatic activity of α‐FXIIa was measured by monitoring the amount of pNA chromophore released from substrate H‐D‐Pro‐Phe‐Arg‐pNA (S‐2302). Assays were performed in a 100‐μL volume at 33 °C in 96‐well plates in a Perkin Elmer (Seer Green, UK) Envision plate reader, and pNA release was followed over a period of 6 h by reading the absorbance at 405 nm. Absorbance values were converted to pNA concentrations by comparison with a standard curve obtained under exactly the same instrument conditions. All absorbance values were within the linear measurement range of the instrument. Initial rates were calculated on the basis of the first 30 min of incubation. To assess the K M, concentrations of substrate peptide between 0.1 mM and 0.6 mM were incubated with 10 nM α‐FXIIa, enzymatic activity was measured as described above, and data were analyzed by non‐linear regression with the Michaelis–Menten algorithm (GRAPHPAD PRISM, version 6.04). To assess the inhibitory mechanism of CTI, 30 nM CTI was incubated with these same concentrations of substrate peptide, the reaction was initiated by the addition of 10 nM α‐FXIIa, enzymatic activity was measured as described above, and data were analyzed by non‐linear regression with the Michaelis–Menten algorithm (GRAPHPAD PRISM, version 6.04) and by linear regression after Lineweaver–Burk transformation. To assay inhibitors, concentrations of CTI variant proteins between 10^−8 M and 10^−5 M or concentrations of peptides between 10^−6 M and 10^−3 M were incubated with 200 μM substrate peptide, the reaction was initiated by addition of 10 nM α‐FXIIa, enzymatic activity was measured as described above, and IC50 values were determined by non‐linear regression analysis (GRAPHPAD PRISM, version 6.04) using the log[inhibitor] versus response – variable slope algorithm with a bottom constraint.

FVIIa = conditions: cited from earlier work
thrombin = conditions: previous reports; cited from earlier work
[2] = target: Full length activated FXIIa (α‐FXIIa) (UniProt P00748)
α‐FXIIa [3] = target: T1, α‐FXIIa; experiment: Kinetic analysis of the CTI inhibitory mechanism (Michaelis–Menten / Lineweaver–Burk, S‐2302); format: biochemical; conditions: 0.1 to 0.6 mM substrate peptide, 10 nM α‐FXIIa
Protocol: as §1
Figure S3: analysis of CTI inhibitory mechanism
0.1 to 0.6 mM of substrate peptide was incubated without (open symbols) or with 30 nM CTI (closed symbols), after which 10 nM α -FXIIa (equalling to 1 pmol of enzyme) was added and enzyme activity was measured as described in the method section. Data were analysed by non-linear regression (top left panel) and linear regression after Lineweaver Burk […]

kallikrein = conditions: cited from earlier work
Description: (§2) The canonical docking pose that we observed for FXIIa–CTI is similar to the trypsin–CTI and HGFA–CTI complexes predicted by CLUSPRO, albeit that there are fewer interactions overall for trypsin and HGFA, owing to Asp60A (H1 pocket) being absent in these proteases.

FIXa = conditions: cited from earlier work
Description: as §2

[4] = target: Full length activated FXIIa (α‐FXIIa) (UniProt P00748); remark: listed apart in the source
[5] = target: Full length activated FXIIa (α‐FXIIa) (UniProt P00748); remark: listed apart in the source
Target sequence in this assay (P00748 20-615): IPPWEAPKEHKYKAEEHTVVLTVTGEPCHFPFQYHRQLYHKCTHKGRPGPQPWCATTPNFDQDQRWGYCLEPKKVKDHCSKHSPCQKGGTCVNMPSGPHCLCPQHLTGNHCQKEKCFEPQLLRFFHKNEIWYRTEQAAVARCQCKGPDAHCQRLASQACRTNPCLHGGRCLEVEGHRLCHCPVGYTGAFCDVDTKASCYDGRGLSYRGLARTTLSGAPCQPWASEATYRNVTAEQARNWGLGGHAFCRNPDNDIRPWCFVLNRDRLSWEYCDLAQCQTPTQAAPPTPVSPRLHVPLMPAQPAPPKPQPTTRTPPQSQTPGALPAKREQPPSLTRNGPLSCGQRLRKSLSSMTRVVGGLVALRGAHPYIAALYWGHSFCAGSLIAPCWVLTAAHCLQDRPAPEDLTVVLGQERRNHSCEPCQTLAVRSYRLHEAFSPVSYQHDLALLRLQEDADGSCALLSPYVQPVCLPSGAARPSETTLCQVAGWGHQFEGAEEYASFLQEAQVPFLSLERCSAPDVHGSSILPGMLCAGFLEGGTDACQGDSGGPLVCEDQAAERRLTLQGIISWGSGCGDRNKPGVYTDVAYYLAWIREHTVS

B1: commercial corn trypsin inhibitor (CTI) (natural protein)
chain: SAGTSCVPGWAIPHNPLPSCRWYVTSRTCGIGPRLPWPELKRRCCRELADIPAYCRCTALSILMDGAIPPGPDAQLEGRLEDLPGCPREVQRGFAATLVTEAECNLATIS
In the case of B1, the “Inhibition of FXIa, in words” value (FXIa) is listed as “weakly inhibits”, the “pIC50 ± SE” value (α‐FXIIa [1]) is listed as 6.97 ± 0.04 and the “Inhibition of FVIIa, in words” value (FVIIa) is listed as “does not inhibit”. For the same molecule, the “Inhibition of thrombin, in words” value (thrombin) was “does not inhibit”, the pIC50 of inhibition of α‐FXIIa enzymatic activity (S‐2302 cleavage) [2] was 6.95 and the Inhibitory mechanism (α‐FXIIa [3]; 30 nM CTI) was “competitive inhibitory mechanism”. The Ki (α‐FXIIa [3]; 30 nM CTI, Fig. S3) was 0.029 ± 0.004 µM, the kcat (α‐FXIIa [3]; in the presence of 30 nM CTI, Fig. S3) was 15 ± 2 and the Km (α‐FXIIa [3]; in the presence of 30 nM CTI, Fig. S3, read-out: Km app) was 301 ± 72 µM. For the same molecule, the “Inhibition of kallikrein, in words” value (kallikrein) was “does not inhibit”, the “Inhibition of FIXa, in words” value (FIXa) was “does not inhibit” and the IC50 of inhibition of α‐FXIIa enzymatic activity (S‐2302 cleavage) [4] was 0.11 µM. The pIC50 of inhibition of α‐FXIIa enzymatic activity (S‐2302 cleavage) [4] was 6.97.

B2: CTI(20–44) synthetic peptide (peptide)
peptide: CRWYVTSRTAGIGPRLPWPELKRRC
B2 gave an IC50 of inhibition of α‐FXIIa enzymatic activity (S‐2302 cleavage) [5] of 290 µM and a pIC50 of inhibition of α‐FXIIa enzymatic activity (S‐2302 cleavage) [5] of 3.54.

B3: CTI(21–43) synthetic peptide (peptide)
peptide: RWYVTSRTAGIGPRLPWPELKRR
In the case of B3, the IC50 of inhibition of α‐FXIIa enzymatic activity (S‐2302 cleavage) [5] is reported as 460 µM and the pIC50 of inhibition of α‐FXIIa enzymatic activity (S‐2302 cleavage) [5] is reported as 3.34.

B4: CTI(23–43) synthetic peptide (peptide)
peptide: YVTSRTAGIGPRLPWPELKRR
In the case of B4, the IC50 of inhibition of α‐FXIIa enzymatic activity (S‐2302 cleavage) [5] is reported as 1100 µM and the pIC50 of inhibition of α‐FXIIa enzymatic activity (S‐2302 cleavage) [5] is reported as 2.94.

B5: CTI(21–42) synthetic peptide (peptide)
peptide: RWYVTSRTAGIGPRLPWPELKR
Molecule B5 has an IC50 of inhibition of α‐FXIIa enzymatic activity (S‐2302 cleavage) [5] of 200 µM and a pIC50 of inhibition of α‐FXIIa enzymatic activity (S‐2302 cleavage) [5] of 3.7.
